# From FireProtDB (doi:10.1110/ps.073137708)
# Values joined by “and” are separate entries in the source; they are usually repeats but may differ in a detail not shown here. Identical values can stand only once.
# B1: H69A, Q7SID9 (parent)
# chain: STGPVAPLPTPPNFPNDIALFQQAYQNWSKEIMLDATWVCSPKTPQDVVRLANWAHEHDYKIRPRGAMHGWTPLTVEKGANVEKVILADTMTHLNGITVNTGGPVATVTAGAGASIEAIVTELQKHDLGWANLPAPGVLSIGGALAVNAHGAALPAVGQTTLPGHTYGSLSNLVTELTAVVWNGTTYALETYQRNDPRITPLLTNLGRCFLTSVTMQAGPNFRQRCQSYTDIPWRELFAPKGADGRTFEKFVAESGGAEAIWYPFTEKPWMKVWTVSPTKPDSSNEVGSLGSAGSLVGKPPQAREVSGPYNYIFSDNLPEPITDMIGAINAGNPGIAPLFGPAMYEITKLGLAATNANDIWGWSKDVQFYIKATTLRLTEGGGAVVTSRANIATVINDFTEWFHERIEFYRAKGEFPLNGPVEIRCCGLDQAADVKVPSVGPPTISATRPRPDHPDWDVAIWLNVLGVPGTPGMFEFYREMEQWMRSHYNNDDATFRPEWSKGWAFGPDPYTDNDIVTNKMRATYIEGVPTTENWDTARARYNQIDPHRVFTNGFMDKLLP
# Variants of: B1
# Details: Brevibacterium sterolicum; pH 7.5; 15 °C; Urea; Fluorescence; Potassium phosphate 50 mM; reversible: Yes (partial); structure 2I0K; whole UniProt chain shown
Variant,denaturant midpoint (higher = more stable),unfolding free energy
H69A,2.9 M and 3.5 M and 2.7 M,1.53 kcal/mol and 1.36 kcal/mol and 1.2 kcal/mol
